Results on twelve molecules are retold here after patent publication US20260242419A1, “A CYCLIC PEPTIDE FOR TRAPPING INTERLEUKIN-1 BETA” (Merck Sharp & Dohme LLC, priority 2023, published 2026).

Sequences and labels used below:
B1: SEQ ID NO: 76 (peptide)
peptide: cyclo([Bip(4'-COOH)][4Pal][Phe(4-COOH)]G[Pro(cis-4-F)][Trp(βS-Me,4-F)][Aib]EW[Aib][4Pal]QRG[dPro(4R-Bzl(4-F))])
SMILES: C[C@@H](c1c[nH]c2cccc(F)c12)[C@@H]1NC(=O)[C@@H]2C[C@H](F)CN2C(=O)CNC(=O)[C@H](Cc2ccc(C(=O)O)cc2)NC(=O)[C@H](Cc2ccncc2)NC(=O)[C@H](Cc2ccc(-c3ccc(C(=O)O)cc3)cc2)NC(=O)[C@H]2C[C@@H](Cc3ccc(F)cc3)CN2C(=O)CNC(=O)[C@H](CCCNC(=N)N)NC(=O)[C@H](CCC(N)=O)NC(=O)[C@H](Cc2ccncc2)NC(=O)C(C)(C)NC(=O)[C@H](Cc2c[nH]c3ccccc23)NC(=O)[C@H](CCC(=O)O)NC(=O)C(C)(C)NC1=O
B2: SEQ ID NO: 83 (peptide)
peptide: cyclo([Phe(4-(5-CO2H-2-pyrimidyl))][Ala(1-bicyclo(1.1.1)pentyl)][Phe(4-COOH)]G[Pro(cis-4-F)][Trp(βS-Me,4-F)][Aib]SW[Aib][Ala(pyrimidin-5-yl)]Q[Dab]G[dPro(4R-Bzl(4-F))])
SMILES: C[C@@H](c1c[nH]c2cccc(F)c12)[C@@H]1NC(=O)[C@@H]2C[C@H](F)CN2C(=O)CNC(=O)[C@H](Cc2ccc(C(=O)O)cc2)NC(=O)[C@H](CC23CC(C2)C3)NC(=O)[C@H](Cc2ccc(-c3ncc(C(=O)O)cn3)cc2)NC(=O)[C@H]2C[C@@H](Cc3ccc(F)cc3)CN2C(=O)CNC(=O)[C@H](CCN)NC(=O)[C@H](CCC(N)=O)NC(=O)[C@H](Cc2cncnc2)NC(=O)C(C)(C)NC(=O)[C@H](Cc2c[nH]c3ccccc23)NC(=O)[C@H](CO)NC(=O)C(C)(C)NC1=O
B3: SEQ ID NO: 75 (peptide)
peptide: cyclo([Bip(4'-COOH)][4Pal][Phe(4-COOH)]G[Pro(cis-4-F)][Trp(βS-Me,4-F)][Aib]EW[Aib][Ala(pyrimidin-5-yl)]QRG[dPro(4R-Bzl(4-F))])
SMILES: C[C@@H](c1c[nH]c2cccc(F)c12)[C@@H]1NC(=O)[C@@H]2C[C@H](F)CN2C(=O)CNC(=O)[C@H](Cc2ccc(C(=O)O)cc2)NC(=O)[C@H](Cc2ccncc2)NC(=O)[C@H](Cc2ccc(-c3ccc(C(=O)O)cc3)cc2)NC(=O)[C@H]2C[C@@H](Cc3ccc(F)cc3)CN2C(=O)CNC(=O)[C@H](CCCNC(=N)N)NC(=O)[C@H](CCC(N)=O)NC(=O)[C@H](Cc2cncnc2)NC(=O)C(C)(C)NC(=O)[C@H](Cc2c[nH]c3ccccc23)NC(=O)[C@H](CCC(=O)O)NC(=O)C(C)(C)NC1=O
B4: SEQ ID NO: 80 (peptide)
peptide: cyclo([TyrEtNAc][4Pal][Phe(4-COOH)][Pro(cis-4-F)][Trp(βS-Me,4-F)][Aib]EW[Aib][Ala(pyrimidin-5-yl)]Q[Dab]G[dProc4Bn])
SMILES: CC(=O)NCCOc1ccc(C[C@@H]2NC(=O)[C@H]3C[C@@H](Cc4ccccc4)CN3C(=O)CNC(=O)[C@H](CCN)NC(=O)[C@H](CCC(N)=O)NC(=O)[C@H](Cc3cncnc3)NC(=O)C(C)(C)NC(=O)[C@H](Cc3c[nH]c4ccccc34)NC(=O)[C@H](CCC(=O)O)NC(=O)C(C)(C)NC(=O)[C@H]([C@@H](C)c3c[nH]c4cccc(F)c34)NC(=O)[C@@H]3C[C@H](F)CN3C(=O)[C@H](Cc3ccc(C(=O)O)cc3)NC(=O)[C@H](Cc3ccncc3)NC2=O)cc1
B5: SEQ ID NO: 82 (peptide)
peptide: cyclo([Phe(4-(5-CO2H-2-pyrimidyl))][Ala(1-bicyclo(1.1.1)pentyl)][Phe(4-COOH)]G[Pro(cis-4-F)][Trp(βS-Me,4-F)][Aib]EW[Aib][Ala(pyrimidin-5-yl)]Q[Dab]G[dPro(4R-Bzl(4-F))])
SMILES: C[C@@H](c1c[nH]c2cccc(F)c12)[C@@H]1NC(=O)[C@@H]2C[C@H](F)CN2C(=O)CNC(=O)[C@H](Cc2ccc(C(=O)O)cc2)NC(=O)[C@H](CC23CC(C2)C3)NC(=O)[C@H](Cc2ccc(-c3ncc(C(=O)O)cn3)cc2)NC(=O)[C@H]2C[C@@H](Cc3ccc(F)cc3)CN2C(=O)CNC(=O)[C@H](CCN)NC(=O)[C@H](CCC(N)=O)NC(=O)[C@H](Cc2cncnc2)NC(=O)C(C)(C)NC(=O)[C@H](Cc2c[nH]c3ccccc23)NC(=O)[C@H](CCC(=O)O)NC(=O)C(C)(C)NC1=O
B6: SEQ ID NO: 81 (peptide)
peptide: cyclo([Phe(4-(5-CO2H-2-pyrimidyl))][4Pal][Phe(4-COOH)]G[Pro(cis-4-F)][Trp(βS-Me,4-F)][Aib]EW[3Aminoazetidine3carboxyl][4Pal]Q[Dab]G[dPro(4R-Bzl(4-F))])
SMILES: C[C@@H](c1c[nH]c2cccc(F)c12)[C@@H]1NC(=O)[C@@H]2C[C@H](F)CN2C(=O)CNC(=O)[C@H](Cc2ccc(C(=O)O)cc2)NC(=O)[C@H](Cc2ccncc2)NC(=O)[C@H](Cc2ccc(-c3ncc(C(=O)O)cn3)cc2)NC(=O)[C@H]2C[C@@H](Cc3ccc(F)cc3)CN2C(=O)CNC(=O)[C@H](CCN)NC(=O)[C@H](CCC(N)=O)NC(=O)[C@H](Cc2ccncc2)NC(=O)C2(CNC2)NC(=O)[C@H](Cc2c[nH]c3ccccc23)NC(=O)[C@H](CCC(=O)O)NC(=O)C(C)(C)NC1=O
B7: SEQ ID NO: 78 (peptide)
peptide: cyclo([TyrEtNAc][4Pal][Phe(4-COOH)][Pro(cis-4-F)][Trp(βS-Me,4-F)][Aib]EW[Aib][Ala(pyrimidin-5-yl)]Q[Dab]G[dProc3Bn])
SMILES: CC(=O)NCCOc1ccc(C[C@@H]2NC(=O)[C@H]3[C@@H](Cc4ccccc4)CCN3C(=O)CNC(=O)[C@H](CCN)NC(=O)[C@H](CCC(N)=O)NC(=O)[C@H](Cc3cncnc3)NC(=O)C(C)(C)NC(=O)[C@H](Cc3c[nH]c4ccccc34)NC(=O)[C@H](CCC(=O)O)NC(=O)C(C)(C)NC(=O)[C@H]([C@@H](C)c3c[nH]c4cccc(F)c34)NC(=O)[C@@H]3C[C@H](F)CN3C(=O)[C@H](Cc3ccc(C(=O)O)cc3)NC(=O)[C@H](Cc3ccncc3)NC2=O)cc1
B8: SEQ ID NO: 74 (peptide)
peptide: cyclo([TyrEtNAc][4Pal][Phe(4-COOH)][Pro(cis-4-F)][Trp(βS-Me,4-F)][Aib]EW[Aib]RQ[Dab]G[dPro(4R-Bzl(4-F))])
SMILES: CC(=O)NCCOc1ccc(C[C@@H]2NC(=O)[C@H]3C[C@@H](Cc4ccc(F)cc4)CN3C(=O)CNC(=O)[C@H](CCN)NC(=O)[C@H](CCC(N)=O)NC(=O)[C@H](CCCNC(=N)N)NC(=O)C(C)(C)NC(=O)[C@H](Cc3c[nH]c4ccccc34)NC(=O)[C@H](CCC(=O)O)NC(=O)C(C)(C)NC(=O)[C@H]([C@@H](C)c3c[nH]c4cccc(F)c34)NC(=O)[C@@H]3C[C@H](F)CN3C(=O)[C@H](Cc3ccc(C(=O)O)cc3)NC(=O)[C@H](Cc3ccncc3)NC2=O)cc1
B9: SEQ ID NO: 77 (peptide)
peptide: cyclo([TyrEtNAc][4Pal][Phe(4-COOH)][Pro(cis-4-F)][Trp(βS-Me,4-F)][Aib]EW[Aib][Ala(pyrimidin-5-yl)]QSG[dProc3Bn])
SMILES: CC(=O)NCCOc1ccc(C[C@@H]2NC(=O)[C@H]3[C@@H](Cc4ccccc4)CCN3C(=O)CNC(=O)[C@H](CO)NC(=O)[C@H](CCC(N)=O)NC(=O)[C@H](Cc3cncnc3)NC(=O)C(C)(C)NC(=O)[C@H](Cc3c[nH]c4ccccc34)NC(=O)[C@H](CCC(=O)O)NC(=O)C(C)(C)NC(=O)[C@H]([C@@H](C)c3c[nH]c4cccc(F)c34)NC(=O)[C@@H]3C[C@H](F)CN3C(=O)[C@H](Cc3ccc(C(=O)O)cc3)NC(=O)[C@H](Cc3ccncc3)NC2=O)cc1
B10: SEQ ID NO: 73 (peptide)
peptide: cyclo([Bip(4'-COOH)][4Pal][Phe(4-COOH)]G[Pro(cis-4-F)][Trp(βS-Me,4-F)][Aib]EW[Aib][2Pal]Q[Dab]G[dPro(4R-Bzl(4-F))])
SMILES: C[C@@H](c1c[nH]c2cccc(F)c12)[C@@H]1NC(=O)[C@@H]2C[C@H](F)CN2C(=O)CNC(=O)[C@H](Cc2ccc(C(=O)O)cc2)NC(=O)[C@H](Cc2ccncc2)NC(=O)[C@H](Cc2ccc(-c3ccc(C(=O)O)cc3)cc2)NC(=O)[C@H]2C[C@@H](Cc3ccc(F)cc3)CN2C(=O)CNC(=O)[C@H](CCN)NC(=O)[C@H](CCC(N)=O)NC(=O)[C@H](Cc2ccccn2)NC(=O)C(C)(C)NC(=O)[C@H](Cc2c[nH]c3ccccc23)NC(=O)[C@H](CCC(=O)O)NC(=O)C(C)(C)NC1=O
B11: SEQ ID NO: 8 (peptide)
peptide: cyclo([Bip(4'-COOH)][4Pal][Phe(4-COOH)]G[Pro(cis-4-F)][Trp(βS-Me,4-F)][Aib]EW[Aib][Ala(pyrimidin-5-yl)]Q[Orn]G[dPro(4R-Bzl(4-F))])
SMILES: C[C@@H](c1c[nH]c2cccc(F)c12)[C@@H]1NC(=O)[C@@H]2C[C@H](F)CN2C(=O)CNC(=O)[C@H](Cc2ccc(C(=O)O)cc2)NC(=O)[C@H](Cc2ccncc2)NC(=O)[C@H](Cc2ccc(-c3ccc(C(=O)O)cc3)cc2)NC(=O)[C@H]2C[C@@H](Cc3ccc(F)cc3)CN2C(=O)CNC(=O)[C@H](CCCN)NC(=O)[C@H](CCC(N)=O)NC(=O)[C@H](Cc2cncnc2)NC(=O)C(C)(C)NC(=O)[C@H](Cc2c[nH]c3ccccc23)NC(=O)[C@H](CCC(=O)O)NC(=O)C(C)(C)NC1=O
B12: SEQ ID NO: 79 (peptide)
peptide: cyclo([TyrEtNAc][4Pal][Phe(4-COOH)][Pro(cis-4-F)][Trp(βS-Me,4-F)][Aib]EW[Aib][Ala(pyrimidin-5-yl)]QSG[dProc4Bn])
SMILES: CC(=O)NCCOc1ccc(C[C@@H]2NC(=O)[C@H]3C[C@@H](Cc4ccccc4)CN3C(=O)CNC(=O)[C@H](CO)NC(=O)[C@H](CCC(N)=O)NC(=O)[C@H](Cc3cncnc3)NC(=O)C(C)(C)NC(=O)[C@H](Cc3c[nH]c4ccccc34)NC(=O)[C@H](CCC(=O)O)NC(=O)C(C)(C)NC(=O)[C@H]([C@@H](C)c3c[nH]c4cccc(F)c34)NC(=O)[C@@H]3C[C@H](F)CN3C(=O)[C@H](Cc3ccc(C(=O)O)cc3)NC(=O)[C@H](Cc3ccncc3)NC2=O)cc1

Starred links: 1 amine or outer side, 2 acyl side, 3 side chain; linkers in the order of their positions; H or OH if unused. Non-standard residues stand in square brackets, D forms with d. TyrEtNAc = (2S)-3-[4-(2-acetamidoethoxy)phenyl]-2-amino-propanoic acid, CC(=O)NCCOc1ccc(C[C@H](N[*:1])C(=O)[*:2])cc1; dProc3Bn = (2R,3S)-3-benzylpyrrolidine-2-carboxylic acid, O=C([C@H]1[C@@H](Cc2ccccc2)CCN1[*:1])[*:2]; dProc4Bn = (2R,4R)-4-benzylpyrrolidine-2-carboxylic acid, O=C([C@H]1C[C@@H](Cc2ccccc2)CN1[*:1])[*:2]; Phe(4-(5-CO2H-2-pyrimidyl)) = N[C@@H](Cc1ccc(-c2ncc(C(=O)O)cn2)cc1)C(=O)O; Trp(βS-Me,4-F) = C[C@@H](c1c[nH]c2cccc(F)c12)[C@H](N)C(=O)O; 3Aminoazetidine3carboxyl = O=C(C1(N[*:1])CN([*:3])C1)[*:2]; Bip(4'-COOH) = N[C@@H](Cc1ccc(-c2ccc(C(=O)O)cc2)cc1)C(=O)O; Ala(1-bicyclo(1.1.1)pentyl) = N[C@@H](CC12CC(C1)C2)C(=O)O; dPro(4R-Bzl(4-F)) = O=C(O)[C@H]1C[C@@H](Cc2ccc(F)cc2)CN1; Ala(pyrimidin-5-yl) = N[C@@H](Cc1cncnc1)C(=O)O; Phe(4-COOH) = N[C@@H](Cc1ccc(C(=O)O)cc1)C(=O)O; Pro(cis-4-F) = O=C(O)[C@@H]1C[C@H](F)CN1; 2Pal = N[C@@H](Cc1ccccn1)C(=O)O; 4Pal = N[C@@H](Cc1ccncc1)C(=O)O; Orn = NCCC[C@H](N)C(=O)O; Dab = NCC[C@H](N)C(=O)O; Aib = CC(C)(N)C(=O)O

The assay has as its target Recombinant human IL-1β (BioLegend 579404) (human, UniProt P01584 117-269). Nature of the assay: cell-based or functional assay.
B1: the “MRC5 IC50” value is 0.059 nM.
With B2, the “MRC5 IC50” value is 0.045 nM.
As for B3, the “MRC5 IC50” value amounted to 0.056 nM.
Regarding B4, the “MRC5 IC50” value amounted to 0.048 nM.
Take B5: the “MRC5 IC50” value came to 0.054 nM.
Turning to B6, the “MRC5 IC50” value worked out at 0.049 nM.
The figure for B7 is 0.036 nM; for B8 it is 0.072 nM.
For the molecule B9, the “MRC5 IC50” value was 0.079 nM.
Consider B10, for which the “MRC5 IC50” value was determined as 0.031 nM.
The figure for B11 is 0.026 nM.
Consider B12, for which the “MRC5 IC50” value was found to be 0.059 nM.
